Reference: patent US20020039573A1

How the values were obtained:
Assay in all cases: cell-based or functional assay
HLA-A2 (human) = target: HLA-A2 (human)
HLA-B and -C = target: HLA-B and -C
HLA-A, -B and -C = target: HLA-A, -B and -C

A γ-IFN Elispot, ICD-specific CD8+ T cell line on Fibro/ICD stimulators pre-incubated with antibody (50 µg/mL) (Elispot spots per well) (HLA-A2 (human)) of 213, a γ-IFN Elispot, clone 17D5 on Fibro/ICD stimulators, antibody at 25 µg/mL (Elispot spots per well) (HLA-A2 (human)) of 165 and a γ-IFN Elispot, clone 17D5 on Fibros-H2N stimulators, antibody at 25 µg/mL (Elispot spots per well) (HLA-A2 (human)) of 98 were found for monoclonal antibody BB7.2 in this work.

A γ-IFN Elispot, ICD-specific CD8+ T cell line on Fibro/ICD stimulators pre-incubated with antibody (50 µg/mL) (Elispot spots per well) (HLA-B and -C) of 5, a γ-IFN Elispot, clone 17D5 on Fibro/ICD stimulators, antibody at 25 µg/mL (Elispot spots per well) (HLA-B and -C) of 1 and a γ-IFN Elispot, clone 17D5 on Fibros-H2N stimulators, antibody at 25 µg/mL (Elispot spots per well) (HLA-B and -C) of 0 were found for monoclonal antibody BB123.2 in this work.

A γ-IFN Elispot, ICD-specific CD8+ T cell line on Fibro/ICD stimulators pre-incubated with antibody (50 µg/mL) (Elispot spots per well) (HLA-A, -B and -C) of 4, a γ-IFN Elispot, clone 17D5 on Fibro/ICD stimulators, antibody at 25 µg/mL (Elispot spots per well) (HLA-A, -B and -C) of 3 and a γ-IFN Elispot, clone 17D5 on Fibros-H2N stimulators, antibody at 25 µg/mL (Elispot spots per well) (HLA-A, -B and -C) of 0 were found for monoclonal antibody W6/32 in this work.
